Laboratory results from the supplement of paper PMC12042874.
± gives the uncertainty stated by the source.

Experiment: amyloid nucleation score (Sup35N fusion, yeast selection) (log enrichment); library NNK2; higher = more nucleation; inactive = no reads after selection
Outline: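 In psi-negative yeast, Sup35N fusions carrying peptides of 20 random codons were induced with 100 μM copper sulfate for 24 hours. The cells then grew 7 days at 30°C on medium lacking adenine and uracil, and plasmid inserts from input and output were Illumina-sequenced, excluding sequences with under 100 input reads. Nucleation score is the DiMSum log enrichment of output over input reads, centred on the mode score of non-aggregating sequences.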

Substance	amyloid nucleation score
LSMERSVGFYDTVTLWLQRK	5.9 ± 0.056
VICFAMSMILR	3.38 ± 0.13
KDAPEECNYVQFKA	0.273 ± 0.61
HVSTSLYTIGSSVSWGMFQG	0.897 ± 0.47
GPITWTNSSGCRIPMPSFSE	1.42 ± 0.36
TLCGFNKGAAIGWCTWNSEK	4.05 ± 0.13
CYTDTMARK	4.15 ± 0.047
YLEMMYVAFNFFNGIYCLFY	inactive
FCWLCFIRSEV	0.554 ± 0.81
KGLAREVRCSQYTTVIFVDR	5.273 ± 0.043
DFNLWPLC	-0.373 ± 1.1
RRLFYRRRQHNILLAYWVWY	0.524 ± 0.81
APFCSIVTTDVP	-0.363 ± 1.1
CSGYSERAPRFCSDLIVCST	0.574 ± 0.51
ILRDDGPNYRFQIRLL	4.647 ± 0.038
FRKEEADYHGYRLYSVAVNA	-0.214 ± 0.36
FSRGDIVA	4.41 ± 0.056
QYVPVLGPACMQLMRYNCAD	-0.177 ± 0.4
VVHGIETIIVDPDRALVGDG	-0.356 ± 0.32
LGYMVVK	-1.35 ± 0.75
CMLMYVYMIDWRPINFMFF	5.301 ± 0.041
MMWLGFYSCKGIGW	3.991 ± 0.039

Substance	amyloid nucleation score
WASIV	0.049 ± 0.8
HSRRGGFRKYSSTLARPASD	-0.799 ± 0.49
SPYRLSPTQTLSFCFIRHLP	inactive
VNVYMYNYLLKHITKDRRST	8.16 ± 0.031
VNVNMPWTEERSKSEMSNTW	1.4 ± 0.37
CFGFYGAIVD	0.023 ± 0.39
DFGVWFFFYTHQLSA	-0.113 ± 1.1
SANSRVGGLGNL	0.717 ± 0.39
YDSDFFFHNLGDEPASVGFR	inactive
SFGWDYVDPQLKNTCTHCRV	-0.795 ± 0.48
RGTVVTGF	1.3 ± 0.44
SDFMTKYHHL	3.33 ± 0.058
QLFGFGYVLVV	-1.12 ± 0.78
SFNTLCLRKC	-0.65 ± 0.37
NIYLFMLMWDWTSYMALCCV	3.94 ± 0.081
VYPDSIVGFEADVNGCVVVP	0.713 ± 0.38
GLLIGSDDLLASVICVITCS	-1.15 ± 1.1
MWNQDLSFFCITRDIKVCTF	4.87 ± 0.06
GFWFFIYVDCVLCVSPTRIN	-0.663 ± 0.56
YTVWGKY	0.288 ± 0.53
DCFTRYGCAGKYRVGAQGSS	1.47 ± 0.47
IGCNVESVYAGLALQMT	2.7 ± 0.18

Substance	amyloid nucleation score
RYFINFSSLCHQLDILWRCV	-1.03 ± 0.76
MSITSC	inactive
WSEISWTIQGCFVRHDALLG	0.087 ± 0.56
PVRGE	0.089 ± 0.8
YYPGL	-1.45 ± 1.1
NCLSM	3.36 ± 0.081
VDGVKTSIKGRNFI	-0.259 ± 0.45
ISLHILCCRSMF	8.618 ± 0.079
WYFWGLHMIGVSTAISNPLR	-0.683 ± 1.1
ESGCRHYLCLGATTIVMDS	6.619 ± 0.049
INVPCFRLKSSVGVISLQGT	0.205 ± 0.26
YCFVDALSCDLPNHEHMDVF	inactive
FNYDIPPVVQGCHISAQLLP	-0.271 ± 0.74
RKILVKMNYFMRHLMNCVTE	inactive
MTVNSLFHRLNKLRGILPDR	-0.902 ± 0.48
SIIVLRLLY	0.523 ± 0.51
LRRTTGYSKLTCLTHG	4.34 ± 0.048
SLFLVRKDFMFCLTSLASVR	2.07 ± 0.16
VLSCCIPKKNSYWTVTDQPC	8.266 ± 0.033
VFYNAASDFLAILQEFTSSH	inactive
YNVMDVMYYAQKWLLWWSKV	-0.353 ± 0.41
RINKGISGRGSD	0.582 ± 0.57

Substance	amyloid nucleation score
KLIYSSYVGSFLMELRWVCD	1.74 ± 0.17
FCWSCWLFQDCSYVVIGREV	8.556 ± 0.048
IFLAWMVPAGFWR	0.56 ± 0.54
ILCLF	0.909 ± 0.45
VLYSRVLDGRESTNLGRL	inactive
RVSTEVFCSLLVGTHLGRGP	4.24 ± 0.13
GICRKNDRTSDQRYFVKSL	-0.575 ± 0.53
PLNSMNVAESESYGLSQMS	1.28 ± 0.37
FDMLVNGHVIYRNRKSSSYI	0.216 ± 0.62
SKMPP	0.147 ± 1.1
AFLFSRDCMERWTMYDGLWW	-0.063 ± 0.42
RQFPGFSSYPTLEINFYICV	6.76 ± 0.069
HWDQLV	-0.504 ± 0.78
VWNYISLNEAM	-0.946 ± 0.55
SHSVRTMFPGGVNPRNIRGY	0.548 ± 0.64
AWGRARNVRFYFVLRGESGL	2.79 ± 0.12
SRFCEH	-0.164 ± 0.39
TWVLSWSIPNCARGFLSWWI	0.672 ± 0.18
KFLKARFGYQST	1.3 ± 0.13
RLWTCLEVLKFSGGLIASMY	-1.05 ± 0.44
